According to publication PMC10107544, “Selecting Better Biocatalysts by Complementing Recoded Bacteria” (Angewandte Chemie (International Ed. in English), 2022):
Numbering of substitutions follows the chain as printed. Names and notes keep the numbering of the source.

B1: SmLcar (Sinorhizobium meliloti) (protein)
chain: MAAPGENRRVNADRLWDSLMEMAKIGPGVAGGNNRQTLTDADGEGRRLFQSWCEEAGLSMGVDKMGTMFLTRPGTDPDALPVHIGSHLDTQPTGGKFDGVLGVLSGLEAVRTMNDLGIKTKHPIVVTNWTNEEGARFAPAMLASGVFAGVHTLEYAYARKDPEGKSFGDELKRIGWLGDEEVGARKMHAYFEYHIEQGPILEAENKQIGVVTHCQGLWWLEFTLTGREAHTGSTPMDMRVNAGLAMARILEMVQTVAMENQPGAVGGVGQMFFSPNSRNVLPGKVVFTVDIRSPDQAKLDGMRARIEAEAPKICERLGVGCSIEAVGHFDPVTFDPKLVETVRGAAEKLGYSHMNLVSGAGHDACWAAKVAPTTMIMCPCVGGLSHNEAEDISREWAAAGADVLFHAVLETAEIVE
notes: recombinant, produced from plasmid and purified; bivalent metal-dependent
B2: SmLcar (Sinorhizobium meliloti; F329C/L217G) (protein)
chain: B1 chain with L217G, F329C
notes: as for B1
B3: SmLcar (Sinorhizobium meliloti; F329Y/L217G) (protein)
chain: B1 chain with L217G, F329Y
notes: as for B1
B4: SmLcar (Sinorhizobium meliloti; L217G) (protein)
chain: B1 chain with L217G
notes: as for B1

Legend:
Assay type in all cases: biochemical, Sinorhizobium meliloti
Conditions in all cases: free enzyme; kinetic pH and metal not given
[1] = substrate: NC(=O)N[C@@H](Cc1ccc(O)c(I)c1)C(=O)O; experiment: saturation kinetics, Michaelis-Menten fit
From the text: (§1) saturation kinetics, Michaelis-Menten fit on […]

[2] = substrate: NC(=O)N[C@@H](Cc1ccc(O)c([N+](=O)[O-])c1)C(=O)O; experiment: HPLC saturation kinetics, Michaelis-Menten fit
From the text: HPLC saturation kinetics, Michaelis-Menten fit on […]

[3] = substrate: NC(=O)N[C@@H](Cc1ccc(O)c([N+](=O)[O-])c1)C(=O)O; experiment: saturation kinetics, Michaelis-Menten fit
From the text: as §1

| Protein | Km [1] | kcat [1] [s⁻¹] | kcat/Km [1] [M⁻¹ s⁻¹] | Km [2] | kcat [2] [s⁻¹] | kcat/Km [2] [M⁻¹ s⁻¹] | Km [3] | kcat [3] [s⁻¹] | kcat/Km [3] [M⁻¹ s⁻¹] |
| --- | --- | --- | --- | --- | --- | --- | --- | --- | --- |
| B1 | 13.8 (7.91) mM | 6.92e-05 ± 2.09e-05 | 0.005 ± 0.00315 | 2.98 (0.87) mM | 0.000105 ± 1.01e-05 | 0.0354 ± 0.00977 |  |  |  |
| B2 | 5.71 (1.14) mM | 4.84 | 849 |  |  |  | 2.92 (0.95) mM | 0.32 | 108 |
| B3 | 1.45 (0.16) mM | 0.231 | 159 |  |  |  | 5.30 (0.88) mM | 0.78 | 148 |
| B4 | 2.58 (0.46) mM | 0.232 | 89.9 |  |  |  | 8.91 (2.81) mM | 0.0929 ± 0.0136 | 10.4 |
